Laboratory results published in publication PMC9156947, “Identification of STAU1 as a regulator of HBV replication by TurboID-based proximity labeling” (iScience, 2022).

Key:
C10-STAU1 = biological target: T1, C10-STAU1 (UniProt O95793 1-577); assay: split reporter (BiFC, NanoBiT); tripartite Nanoluc luciferase: C10-tagged and N8-tagged proteins co-transfected with a plasmid expressing Nano1-7 into HepG2 cells; luciferase activity measured 48 h post-transfection; settings: partners not purified
T1 construct: also called wild type STAU1; source: HepG2, transfected, in cells; not shown: C10 tag (tripartite NanoLuc), N-terminal, kept
T1 sequence (looked up): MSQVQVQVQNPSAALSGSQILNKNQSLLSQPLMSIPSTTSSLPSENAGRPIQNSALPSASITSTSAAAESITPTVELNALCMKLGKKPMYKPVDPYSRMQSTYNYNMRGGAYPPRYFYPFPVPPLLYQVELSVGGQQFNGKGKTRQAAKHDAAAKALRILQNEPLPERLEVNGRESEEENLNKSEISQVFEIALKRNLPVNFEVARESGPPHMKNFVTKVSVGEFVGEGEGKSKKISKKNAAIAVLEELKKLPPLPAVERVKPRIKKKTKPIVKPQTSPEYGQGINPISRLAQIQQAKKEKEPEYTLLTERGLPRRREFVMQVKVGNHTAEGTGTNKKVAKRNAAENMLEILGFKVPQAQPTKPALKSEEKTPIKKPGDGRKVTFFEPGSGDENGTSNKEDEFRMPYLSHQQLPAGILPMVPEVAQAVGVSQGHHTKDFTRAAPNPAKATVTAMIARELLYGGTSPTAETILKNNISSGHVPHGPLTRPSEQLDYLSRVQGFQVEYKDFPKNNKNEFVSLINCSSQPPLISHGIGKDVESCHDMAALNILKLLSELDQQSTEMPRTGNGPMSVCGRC

C10-DDB1 = biological target: T2, C10-DDB1 (UniProt Q16531 1-1140); assay: as above; settings: partners not purified
T2 construct: also called wild type DDB1; source: HepG2, transfected, in cells; not shown: C10 tag (tripartite NanoLuc), N-terminal, kept
T2 sequence (Q16531 whole entry): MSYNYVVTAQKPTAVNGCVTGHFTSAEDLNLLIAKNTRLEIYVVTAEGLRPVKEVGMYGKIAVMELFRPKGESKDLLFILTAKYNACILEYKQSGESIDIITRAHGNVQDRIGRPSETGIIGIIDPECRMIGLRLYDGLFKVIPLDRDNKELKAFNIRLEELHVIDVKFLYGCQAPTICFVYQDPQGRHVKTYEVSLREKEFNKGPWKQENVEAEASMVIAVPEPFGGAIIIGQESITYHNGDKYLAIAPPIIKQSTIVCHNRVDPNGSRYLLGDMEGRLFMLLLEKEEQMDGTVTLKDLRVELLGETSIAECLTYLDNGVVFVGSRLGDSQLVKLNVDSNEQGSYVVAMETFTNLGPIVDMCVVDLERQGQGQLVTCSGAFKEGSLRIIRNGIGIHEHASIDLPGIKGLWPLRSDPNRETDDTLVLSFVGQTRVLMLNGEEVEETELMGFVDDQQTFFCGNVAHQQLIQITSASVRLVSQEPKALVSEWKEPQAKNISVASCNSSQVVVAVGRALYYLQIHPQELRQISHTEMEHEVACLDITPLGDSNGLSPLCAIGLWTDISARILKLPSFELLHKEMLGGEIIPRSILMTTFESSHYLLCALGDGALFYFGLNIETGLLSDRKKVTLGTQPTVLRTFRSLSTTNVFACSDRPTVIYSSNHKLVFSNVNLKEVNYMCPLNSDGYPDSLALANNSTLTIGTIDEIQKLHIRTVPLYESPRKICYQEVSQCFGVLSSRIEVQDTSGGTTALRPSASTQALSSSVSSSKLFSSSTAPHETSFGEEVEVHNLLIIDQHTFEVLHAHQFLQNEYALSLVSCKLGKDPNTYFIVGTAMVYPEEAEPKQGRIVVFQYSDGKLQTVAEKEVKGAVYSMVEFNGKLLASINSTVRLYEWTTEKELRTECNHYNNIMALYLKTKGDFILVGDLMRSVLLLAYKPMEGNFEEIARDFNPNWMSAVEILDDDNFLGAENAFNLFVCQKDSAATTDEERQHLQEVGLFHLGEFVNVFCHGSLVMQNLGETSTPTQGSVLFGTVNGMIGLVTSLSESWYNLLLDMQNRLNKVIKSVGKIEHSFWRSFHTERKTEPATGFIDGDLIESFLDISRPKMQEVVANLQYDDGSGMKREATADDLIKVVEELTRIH

| Binder | fold luminescence over the control (C10-STAU1) | fold luminescence over the controls (C10-DDB1) | fold luminescence over the controls (C10-STAU1) |
| --- | --- | --- | --- |
| N8-TAF10 (natural protein, source: transfected cells (tripartite NanoLuc system), in cells) not shown | > 20 fold | – | – |
| N8-HBx (natural protein, also called X protein; wild type HBx; source: HepG2, transfected, in cells; not shown: N8 tag (tripartite NanoLuc), N-terminal, kept) MAARLCCQLDPARDVLCLRPVGAESRGRPFSGSLGTLSSPSPSAVPTDHGAHLSLRGLPVCAFSSAGPCALRFTSARRMETTVNAHQILPKVLHKRTLGLSAMSTTDLEAYFKDCLFKDWEELGEEIRLKVFVLGGCRHKLVCAPAPCNFFTSA | – | ~200 fold | 28 fold |
